{
  "source": "patent US20240116985A1",
  "about": "“STAPLED PEPTIDES AND METHODS THEREOF” (priority 2020, published 2024)",
  "key": {"[1]": {"target": "B-cat-Halo (beta-catenin HaloTag NanoBRET construct expressed in HEK293 cells) (UniProt P35222)", "sequence (P35222 whole entry)": "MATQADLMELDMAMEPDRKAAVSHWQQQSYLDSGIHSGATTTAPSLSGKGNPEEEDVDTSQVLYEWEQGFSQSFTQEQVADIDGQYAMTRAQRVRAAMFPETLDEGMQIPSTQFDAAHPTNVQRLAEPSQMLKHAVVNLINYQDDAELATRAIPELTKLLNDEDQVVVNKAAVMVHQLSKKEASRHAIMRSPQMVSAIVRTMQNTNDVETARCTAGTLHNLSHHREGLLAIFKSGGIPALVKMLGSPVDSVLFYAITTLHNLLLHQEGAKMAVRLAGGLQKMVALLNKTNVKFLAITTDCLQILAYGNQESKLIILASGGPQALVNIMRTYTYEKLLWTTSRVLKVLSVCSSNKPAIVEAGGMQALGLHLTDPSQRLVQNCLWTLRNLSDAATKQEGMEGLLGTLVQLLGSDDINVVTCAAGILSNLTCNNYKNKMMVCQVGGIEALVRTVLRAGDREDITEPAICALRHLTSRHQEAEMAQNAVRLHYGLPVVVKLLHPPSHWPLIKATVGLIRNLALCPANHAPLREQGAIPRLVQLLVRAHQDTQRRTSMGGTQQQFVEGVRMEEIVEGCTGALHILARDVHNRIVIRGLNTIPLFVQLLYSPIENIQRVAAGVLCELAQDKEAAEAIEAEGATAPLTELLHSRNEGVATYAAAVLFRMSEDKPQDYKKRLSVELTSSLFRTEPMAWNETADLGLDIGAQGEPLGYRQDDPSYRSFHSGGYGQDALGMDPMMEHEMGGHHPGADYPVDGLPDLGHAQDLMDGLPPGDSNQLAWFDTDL", "assay": "NanoBRET in HEK293 cells, Bcat-Halo + TCF4-Luc, peptide at 10 uM"}, "[2]": {"target": "beta-catenin-Halo NanoBRET construct (Homo sapiens (Human)) (UniProt P35222)", "sequence (P35222 whole entry)": "as above", "assay": "NanoBRET, Bcat-Halo/TCF4-Luc in HEK293 cells; peptide 5 uM; replicate 1; competitor TCF4-Luc"}, "[3]": {"target": "beta-catenin-Halo NanoBRET construct (Homo sapiens (Human)) (UniProt P35222)", "assay": "NanoBRET, Bcat-Halo/TCF4-Luc in HEK293 cells; peptide 10 uM; replicate 1; competitor TCF4-Luc"}, "[4]": {"target": "beta-catenin-Halo NanoBRET construct (Homo sapiens (Human)) (UniProt P35222)", "assay": "NanoBRET, Bcat-Halo/TCF4-Luc in HEK293 cells; peptide 10 uM; replicate 2; competitor TCF4-Luc"}, "[5]": {"target": "beta-catenin-Halo NanoBRET construct (Homo sapiens (Human)) (UniProt P35222)", "assay": "NanoBRET, Bcat-Halo/TCF4-Luc in HEK293 cells; peptide 20 uM; replicate 3; competitor TCF4-Luc"}, "[6]": {"target": "beta-catenin-Halo NanoBRET construct (Homo sapiens (Human)) (UniProt P35222)", "assay": "NanoBRET, Bcat-Halo/TCF4-Luc in HEK293 cells; peptide 2.5 uM; replicate 2; competitor TCF4-Luc"}, "[7]": {"target": "beta-catenin-Halo NanoBRET construct (Homo sapiens (Human)) (UniProt P35222)", "assay": "NanoBRET, Bcat-Halo/TCF4-Luc in HEK293 cells; peptide 2.5 uM; replicate 3; competitor TCF4-Luc"}, "[8]": {"target": "beta-catenin-Halo NanoBRET construct (Homo sapiens (Human)) (UniProt P35222)", "assay": "NanoBRET, Bcat-Halo/TCF4-Luc in HEK293 cells; peptide 1.25 uM; replicate 2; competitor TCF4-Luc"}, "[9]": {"target": "beta-catenin-Halo (NanoBRET construct expressed in HEK293 cells) (Homo sapiens (Human)) (UniProt P35222)", "sequence (P35222 whole entry)": "as above", "assay": "NanoBRET, HEK293 cells with Bcat-Halo and TCF4-Luc; plate row D (5 uM by plate map), plate column 5"}, "[10]": {"target": "beta-catenin-Halo (NanoBRET construct expressed in HEK293 cells) (Homo sapiens (Human)) (UniProt P35222)", "assay": "NanoBRET, HEK293 cells with Bcat-Halo and TCF4-Luc; plate row D (5 uM by plate map), plate column 6"}, "[11]": {"target": "beta-catenin-Halo (NanoBRET construct expressed in HEK293 cells) (Homo sapiens (Human)) (UniProt P35222)", "assay": "NanoBRET, HEK293 cells with Bcat-Halo and TCF4-Luc; plate row D (5 uM by plate map), plate column 7"}, "[12]": {"target": "beta-catenin-Halo (NanoBRET construct expressed in HEK293 cells) (Homo sapiens (Human)) (UniProt P35222)", "assay": "NanoBRET, HEK293 cells with Bcat-Halo and TCF4-Luc; plate row B (20 uM by plate map), plate column 7"}, "[13]": {"target": "beta-catenin-Halo (NanoBRET construct expressed in HEK293 cells) (Homo sapiens (Human)) (UniProt P35222)", "assay": "NanoBRET, HEK293 cells with Bcat-Halo and TCF4-Luc; plate row C (10 uM by plate map), plate column 5"}, "[14]": {"target": "beta-catenin-Halo (NanoBRET construct expressed in HEK293 cells) (Homo sapiens (Human)) (UniProt P35222)", "assay": "NanoBRET, HEK293 cells with Bcat-Halo and TCF4-Luc; plate row C (10 uM by plate map), plate column 6"}, "[15]": {"target": "beta-catenin-Halo (NanoBRET construct expressed in HEK293 cells) (Homo sapiens (Human)) (UniProt P35222)", "assay": "NanoBRET, HEK293 cells with Bcat-Halo and TCF4-Luc; plate row E (2.5 uM by plate map), plate column 5"}, "[16]": {"target": "beta-catenin-Halo (NanoBRET construct expressed in HEK293 cells) (Homo sapiens (Human)) (UniProt P35222)", "assay": "NanoBRET, HEK293 cells with Bcat-Halo and TCF4-Luc; plate row E (2.5 uM by plate map), plate column 6"}, "[17]": {"target": "beta-catenin-Halo (NanoBRET construct expressed in HEK293 cells) (Homo sapiens (Human)) (UniProt P35222)", "assay": "NanoBRET, HEK293 cells with Bcat-Halo and TCF4-Luc; plate row E (2.5 uM by plate map), plate column 7"}, "[18]": {"target": "beta-catenin-Halo (NanoBRET construct expressed in HEK293 cells) (Homo sapiens (Human)) (UniProt P35222)", "assay": "NanoBRET, HEK293 cells with Bcat-Halo and TCF4-Luc; plate row F (1.25 uM by plate map), plate column 5"}, "[19]": {"target": "beta-catenin-Halo (NanoBRET construct expressed in HEK293 cells) (Homo sapiens (Human)) (UniProt P35222)", "assay": "NanoBRET, HEK293 cells with Bcat-Halo and TCF4-Luc; plate row F (1.25 uM by plate map), plate column 6"}, "[20]": {"target": "beta-catenin-Halo NanoBRET construct (Homo sapiens (Human)) (UniProt P35222)", "assay": "NanoBRET raw acceptor reading, Bcat-Halo/TCF4-Luc in HEK293 cells; plate row D (5 uM by plate map); competitor TCF4-Luc"}, "[21]": {"target": "beta-catenin-Halo NanoBRET construct (Homo sapiens (Human)) (UniProt P35222)", "assay": "NanoBRET raw acceptor reading, Bcat-Halo/TCF4-Luc in HEK293 cells; plate row B (20 uM by plate map); competitor TCF4-Luc"}, "[22]": {"target": "beta-catenin-Halo NanoBRET construct (Homo sapiens (Human)) (UniProt P35222)", "assay": "NanoBRET raw acceptor reading, Bcat-Halo/TCF4-Luc in HEK293 cells; plate row C (10 uM by plate map); competitor TCF4-Luc"}, "[23]": {"target": "beta-catenin-Halo NanoBRET construct (Homo sapiens (Human)) (UniProt P35222)", "assay": "NanoBRET raw acceptor reading, Bcat-Halo/TCF4-Luc in HEK293 cells; plate row E (2.5 uM by plate map); competitor TCF4-Luc"}, "[24]": {"target": "beta-catenin-Halo NanoBRET construct (Homo sapiens (Human)) (UniProt P35222)", "assay": "NanoBRET raw acceptor reading, Bcat-Halo/TCF4-Luc in HEK293 cells; plate row F (1.25 uM by plate map); competitor TCF4-Luc"}, "[25]": {"target": "full-length beta-Catenin (Uniprot ID P35222) (Homo sapiens (Human)) (UniProt P35222)", "sequence (P35222 2-781 limits assumed)": "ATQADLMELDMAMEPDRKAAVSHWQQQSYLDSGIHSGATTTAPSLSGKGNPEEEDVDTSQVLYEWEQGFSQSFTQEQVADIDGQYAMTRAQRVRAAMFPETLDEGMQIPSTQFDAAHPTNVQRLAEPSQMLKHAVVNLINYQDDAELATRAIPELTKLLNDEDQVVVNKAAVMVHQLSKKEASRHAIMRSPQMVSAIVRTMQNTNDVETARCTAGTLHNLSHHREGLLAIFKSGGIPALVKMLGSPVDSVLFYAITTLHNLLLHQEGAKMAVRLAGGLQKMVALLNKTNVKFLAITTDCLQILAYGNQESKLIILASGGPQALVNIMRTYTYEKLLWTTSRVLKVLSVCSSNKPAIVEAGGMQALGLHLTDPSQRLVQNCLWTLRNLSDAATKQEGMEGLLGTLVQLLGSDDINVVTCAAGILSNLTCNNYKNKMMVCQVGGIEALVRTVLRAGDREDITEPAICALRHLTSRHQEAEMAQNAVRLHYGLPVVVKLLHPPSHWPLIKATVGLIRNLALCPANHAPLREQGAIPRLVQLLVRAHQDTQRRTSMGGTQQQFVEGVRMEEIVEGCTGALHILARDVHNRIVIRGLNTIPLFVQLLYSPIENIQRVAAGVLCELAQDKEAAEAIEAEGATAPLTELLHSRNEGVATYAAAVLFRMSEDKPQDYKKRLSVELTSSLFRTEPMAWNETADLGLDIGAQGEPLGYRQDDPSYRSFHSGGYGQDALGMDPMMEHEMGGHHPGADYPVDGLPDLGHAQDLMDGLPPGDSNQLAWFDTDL", "assay": "fluorescence polarization competition: peptide titrated against 10 nM full-length beta-catenin + 10 nM 5FAM-TCF4(10-53) probe"}},
  "note": "Where “and” joins values, the source holds several entries; their conditions need not be identical. Identical values can stand only once. Starred links: 1 amine or outer side, 2 acyl side, 3 side chain; linkers in the order of their positions; H or OH if unused. Positions of bridges follow the written chain, without caps; N, C: chain ends. Non-standard residues stand in square brackets, D forms with d. PyrS2 = (S)-3-amino-1-((pent-4-en-1-yloxy)carbonyl)pyrrolidine-3-carboxylic acid, C=CCCCOC(=O)N1CC[C@@](N[*:1])(C(=O)[*:2])C1; B5 = 2-amino-2-(pent-4-en-1-yl)hept-6-enoic acid, C=CCCCC(CCCC=C)(N[*:1])C(=O)[*:2]; Bta = N[C@@H](Cc1csc2ccccc12)C(=O)O; αAllylPro = C=CC[C@@]1(C(=O)O)CCCN1; tBuAla = CC(C)(C)C[C@H](N)C(=O)O; 3Thi = N[C@@H](Cc1ccsc1)C(=O)O",
  "data": [
    {"binder": "Ac-[αAllylPro]F[tBuAla][B5]DDAADN[PyrS2][3Thi][Bta]Q-NH2 (staple 1-4, 4-11)", "note": "[I-797]", "values": [
      {"measurement": "NanoBRET % inh @ 10 uM", "setting": "[1]", "result": 4.3, "unit": "%"},
      {"measurement": "% Inhibition", "setting": "[2]", "result": -16.9, "unit": "%"},
      {"measurement": "% Inhibition", "setting": "[3]", "result": -21.7, "unit": "%"},
      {"measurement": "% Inhibition", "setting": "[4]", "result": -21.9, "unit": "%"},
      {"measurement": "% Inhibition", "setting": "[5]", "result": -19.5, "unit": "%"},
      {"measurement": "% Inhibition", "setting": "[6]", "result": 26.5, "unit": "%"},
      {"measurement": "% Inhibition", "setting": "[7]", "result": -11.7, "unit": "%"},
      {"measurement": "% Inhibition", "setting": "[8]", "result": -1.1, "unit": "%"},
      {"measurement": "NanoBRET donor emission 450 BP (raw reading)", "setting": "[9]", "result": 38800},
      {"measurement": "NanoBRET donor emission 450 BP (raw reading)", "setting": "[10]", "result": 29900},
      {"measurement": "NanoBRET donor emission 450 BP (raw reading)", "setting": "[11]", "result": 47500},
      {"measurement": "NanoBRET donor emission 450 BP (raw reading)", "setting": "[12]", "result": 48000},
      {"measurement": "NanoBRET donor emission 450 BP (raw reading)", "setting": "[13]", "result": 58500},
      {"measurement": "NanoBRET donor emission 450 BP (raw reading)", "setting": "[14]", "result": 25900},
      {"measurement": "NanoBRET donor emission 450 BP (raw reading)", "setting": "[15]", "result": 34100},
      {"measurement": "NanoBRET donor emission 450 BP (raw reading)", "setting": "[16]", "result": 22700},
      {"measurement": "NanoBRET donor emission 450 BP (raw reading)", "setting": "[17]", "result": 40100},
      {"measurement": "NanoBRET donor emission 450 BP (raw reading)", "setting": "[18]", "result": 21800},
      {"measurement": "NanoBRET donor emission 450 BP (raw reading)", "setting": "[19]", "result": 34500},
      {"measurement": "Acceptor 600 LP emission", "setting": "[20]", "result": "510 and 420 and 630"},
      {"measurement": "Acceptor 600 LP emission", "setting": "[21]", "result": "860 and 660 and 640"},
      {"measurement": "Acceptor 600 LP emission", "setting": "[22]", "result": "790 and 350 and 470"},
      {"measurement": "Acceptor 600 LP emission", "setting": "[23]", "result": "460 and 220 and 510"},
      {"measurement": "Acceptor 600 LP emission", "setting": "[24]", "result": "300 and 410 and 860"},
      {"measurement": "EC50", "setting": "[25]", "result": 10, "unit": "µM"}
    ]}
  ]
}
